{"source": "patent US20030219427A1", "about": "“TPL-2/COT kinase and methods of use” (priority 1998, published 2003)", "molecules": {"B1": {"name": "p105498-969(ΔDD): recombinant p105 498-969 protein which lacks the p105 death domain (protein)", "chain": "QDNLFLEKAMQLAKRHANALFDYAVTGDVKMLLAVQRHLTAVQDENGDSVLHLAIIHLHSQLVRDLLEVTSGLISDDIINMRNDLYQTPLHLAVITKQEDVVEDLLRAGADLSLLDRLGNSVLHLAAKEGHDKVLSILLKHKKAALLLDHPNGDGLNAIHLAMMSNSLPCLLLLVAAGADVNAQEQKSGRTALHLAVEHDNISLAGCLLLEGDAHVDSTTYDGTTPLHIAAGRGSTRLAALLKAAGADPLVENFEPLYDLDDSWENAGEDEGVVPGTTPLDMATSWQVFDILNGKPYEPEFTSDDSPVKTTSQAHSLPLSPASTRQQIDELRDSDSVCDSGVETSFRKLSFTESLTSGASLLTLNKMPHDYGQEGPLEGKI"}}, "target": "T1, Myc-TPL-2 MEK kinase activity (Rattus norvegicus, UniProt Q63562)", "T1 construct": "made in house; host or cells: HEK 293 cells, transient transfection, anti-Myc immunoprecipitation", "test": "In vitro MEK kinase assay with GST-MEK1(K207A) substrate, Myc-TPL-2", "assay_type": "biochemical", "conditions": "equivalent molar concentrations to p105498-969", "description": "Myc-TPL-2 or Myc-TPL-2ΔC were isolated by immunoprecipitation from lysates of transiently transfected 293 cells, as described above. immunoprecipitates were washed four times in Buffer A, followed by two washes in kinase buffer (50 mM Tris-pH7.5, 150 mM NaCl, 5 mM β-glycerophosphate, 2 mM dithiothreitol, 0.1 mM sodium vanadate, 10 mM MgCl2, 1 mM EGTA, 0.01% Brij35). Beads were then resuspended in 50μl of kinase buffer plus the indicated amounts of recombinant p105 protein and incubated at 4° C. for 30 min. […] The supernatant was removed, mixed with an equal volume of 2×sample buffer, Western blotted after 8%-acrylamide SDS-PAGE and probed with anti-phospho-MEK-½ antibody. Immunoprecipitated Myc-TPL-2 or Myc-TPL-2ΔC was eluted with Laemlli sample buffer from the remaining anti-Myc mAb beads and quantified by Western blotting.\nOnly a small fraction of over-expressed Myc-TPL-2 is associated with p105, presumably due to titration of endogenous p105 protein. The effect of p105 binding on Myc-TPL-2 MEK kinase activity was investigated by incubation of TPL-2 imnmunoprecipitates with recombinant p105498-969 protein prior to in vitro kinase assay. MEK phosphorylation was assayed by Western blotting with anti-phospho-MEK-½ antibody. Control experiments confirmed that p105498-969 protein bound to TPL-2 in vitro. […]", "data": [{"molecule": "B1", "values": [{"measurement": "effect on Myc-TPL-2 MEK kinase activity", "value": "did not affect"}]}]}
